Details in all cases: both partners purified
The target of experiment [1] is T1, C3b (human, UniProt P01024 23-667; P01024 749-1663).
T1 construct: complement C3 beta chain, human; Immobilised by amine coupling, via the nascent thioester (physiological) or via the free thiol of hydrolysed C3b; the way is told in each assay's format; also called C3b(H2O); C3b-SH; source: bought: Complement Technologies, Inc. (human plasma-derived)
Description: SPR; homemade HJEM2 chip (1% COOH, 99% OH), 313 RU C3b amine-coupled; FH flowed (2 μM to 3.9 nM); Biacore T200, 25 °C, HBS-P pH 7.4; 1:1 steady-state model. For orientation: SPR reads the build-up and loss of mass on a sensor chip optically.

Experiment [2] concerns the target T1, C3b. Description: SPR; C1 chip, 144 RU C3b amine-coupled; FH flowed (2 μM to 7.8 nM, 2-fold series, duplicates); Biacore T200, 25 °C, HBS-P pH 7.4, 150 mM NaCl, 1 mM MgCl2; 1:1 steady-state model.
The target in experiment [3] is T1, C3b. Kind of experiment: SPR; homemade HJEM4 chip with maleimide groups, 240 RU hydrolyzed C3b coupled via its free thiol; FH flowed (2 μM to 3.9 nM); Biacore T200, 25 °C, HBS-P pH 7.4; 1:1 steady-state model.
Experiment [4] has as its target T1, C3b. Description: SPR; C1 chip, 196 RU C3b immobilised physiologically (seed C3b, then seven cycles of FB+FD and C3); FH flowed (2 μM to 7.8 nM); Biacore T200, 25 °C, HBS-P pH 7.4; 1:1 steady-state model.
The target of experiment [5] is T1, C3b. Kind of experiment: SPR; homemade HJEM7 chip (50% OH, 25% COOH, 25% propargyl), 144 RU C3b amine-coupled; FH (2 μM to 3.9 nM) or FH 19–20 (10 μM to 3.9 nM) flowed; Biacore T200, 25 °C, HBS-P pH 7.4; 1:1 steady-state model.
Experiment [6] concerns the target T1, C3b. Description: SPR; homemade HJEM7 chip, 143 RU C3b amine-coupled and 174 RU 3′-sialyllactose clicked on; FH (2 μM to 3.9 nM) or FH 19–20 (10 μM to 3.9 nM) flowed; Biacore T200, 25 °C, HBS-P pH 7.4; 1:1 steady-state model.

B1: factor H (natural protein, human, UniProt P08603 19-1231, looked up)
chain: EDCNELPPRRNTEILTGSWSDQTYPEGTQAIYKCRPGYRSLGNVIMVCRKGEWVALNPLRKCQKRPCGHPGDTPFGTFTLTGGNVFEYGVKAVYTCNEGYQLLGEINYRECDTDGWTNDIPICEVVKCLPVTAPENGKIVSSAMEPDREYHFGQAVRFVCNSGYKIEGDEEMHCSDDGFWSKEKPKCVEISCKSPDVINGSPISQKIIYKENERFQYKCNMGYEYSERGDAVCTESGWRPLPSCEEKSCDNPYIPNGDYSPLRIKHRTGDEITYQCRNGFYPATRGNTAKCTSTGWIPAPRCTLKPCDYPDIKHGGLYHENMRRPYFPVAVGKYYSYYCDEHFETPSGSYWDHIHCTQDGWSPAVPCLRKCYFPYLENGYNQNYGRKFVQGKSIDVACHPGYALPKAQTTVTCMENGWSPTPRCIRVKTCSKSSIDIENGFISESQYTYALKEKAKYQCKLGYVTADGETSGSITCGKDGWSAQPTCIKSCDIPVFMNARTKNDFTWFKLNDTLDYECHDGYESNTGSTTGSIVCGYNGWSDLPICYERECELPKIDVHLVPDRKKDQYKVGEVLKFSCKPGFTIVGPNSVQCYHFGLSPDLPICKEQVQSCGPPPELLNGNVKEKTKEEYGHSEVVEYYCNPRFLMKGPNKIQCVDGEWTTLPVCIVEESTCGDIPELEHGWAQLSSPPYYYGDSVEFNCSESFTMIGHRSITCIHGVWTQLPQCVAIDKLKKCKSSNLIILEEHLKNKKEFDHNSNIRYRCRGKEGWIHTVCINGRWDPEVNCSMAQIQLCPPPPQIPNSHNMTTTLNYRDGEKVSVLCQENYLIQEGEEITCKDGRWQSIPLCVEKIPCSQPPQIEHGTINSSRSSQESYAHGTKLSYTCEGGFRISEENETTCYMGKWSSPPQCEGLPCKSPPEISHGVVAHMSDSYQYGEEVTYKCFEGFGIDGPAIAKCLGEKWSHPPSCIKTDCLSLPSFENAIPMGEKKDVYKAGEQVTYTCATYYKMDGASNVTCINSRWTGRPTCRDTSCVNPPTVQNAYIVSRQMSKYPSGERVRYQCRSPYEMFGDEEVMCLNGNWTEPPQCKDSTGKCGPPPPIDNGDITSFPLSVYAPASSVEYQCQNLYQLEGNKRITCRNGQWSEPPKCLHPCVISREIMENYNIALRWTAKQKLYSRTGESVEFVCKRGYRLSSRSHTLRTTCWDGKLEYPTCAKR
notes: complement factor H, human, 155-kDa serum glycoprotein of 20 CCP modules; Free FH: flowed as analyte in SPR, or amine-coupled directly to the AFM tip; also called FH; CFH; source: isolated from human plasma (TCS Biosciences Ltd.)
As to B1, the Kd (in general, the constant that tells how readily two partners part at equilibrium) with C3b [1] is 50 nM; with C3b [2], 230 nM; with C3b [3], 180 nM; with C3b [4], 130 nM; with C3b [5], 70 nM; with C3b [6], 90 nM.
